B1: FBXO39 (parent)
chain: RVFKARIYTNRYETNEEDKTLQEI

Variants of: B1
Assay: protein stability index of a GFP-peptide fusion (GPS, HEK-293T) (PSI 1-6); higher = more stable
Details: c terminus: a fixed tail appended
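Also: lentivirally expressed fusions sorted by FACS into six bins by GFP to DsRed ratio, PSI derived from sequencing read proportions per bin multiplied by bin number.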

Point of comparison: RVFKARIYTNRYETNEEDKTLCEI, protein stability index 3.48. Against it:
- RVFKARIYTNRYETNEWDKTLQEI — lower, 2.27
- RVFKARIYTNRYETNEYDKTLQEI — lower, 2.72
- RVFKARIYTNRYETNEEAKTLQEI — lower, 3.19
- RVFKARIYTNRYETNEECKTLQEI — lower, 2.33
- RVFKARIYTNRYETNEEEKTLQEI — lower, 2.48
- RVFKARIYTNRYETNEEFKTLQEI — lower, 1.67
- RVFKARIYTNRYETNEEGKTLQEI — lower, 2.53
- RVFKARIYTNRYETNEEHKTLQEI — lower, 2.16
- RVFKARIYTNRYETNEEIKTLQEI — lower, 2.68
- RVFKARIYTNRYETNEEKKTLQEI — lower, 2.7
- RVFKARIYTNRYETNEELKTLQEI — lower, 2.46
- RVFKARIYTNRYETNEEMKTLQEI — lower, 2.22
- RVFKARIYTNRYETNEENKTLQEI — lower, 2.25
- RVFKARIYTNRYETNEEPKTLQEI — lower, 2.56
- RVFKARIYTNRYETNEEQKTLQEI — lower, 2.78
- RVFKARIYTNRYETNEERKTLQEI — lower, 2.38
- RVFKARIYTNRYETNEESKTLQEI — lower, 1.71
- RVFKARIYTNRYETNEETKTLQEI — lower, 2.36
- RVFKARIYTNRYETNEEVKTLQEI — lower, 2.4
- RVFKARIYTNRYETNEEWKTLQEI — lower, 2.18
- RVFKARIYTNRYETNEEYKTLQEI — lower, 2.78
- RVFKARIYTNRYETNEEDATLQEI — lower, 2.15
- RVFKARIYTNRYETNEEDCTLQEI — lower, 3.04
- RVFKARIYTNRYETNEEDETLQEI — higher, 3.84
- RVFKARIYTNRYETNEEDFTLQEI — lower, 2.61
- RVFKARIYTNRYETNEEDGTLQEI — higher, 3.62
- RVFKARIYTNRYETNEEDHTLQEI — lower, 2.92
- RVFKARIYTNRYETNEEDITLQEI — lower, 2.58
- RVFKARIYTNRYETNEEDLTLQEI — lower, 2.44
- RVFKARIYTNRYETNEEDMTLQEI — lower, 2.3
- RVFKARIYTNRYETNEEDNTLQEI — lower, 2.83
- RVFKARIYTNRYETNEEDPTLQEI — lower, 2.91
- RVFKARIYTNRYETNEEDQTLQEI — lower, 3.23
- RVFKARIYTNRYETNEEDRTLQEI — higher, 4
- RVFKARIYTNRYETNEEDSTLQEI — lower, 3.39
- RVFKARIYTNRYETNEEDTTLQEI — lower, 2.79
- RVFKARIYTNRYETNEEDVTLQEI — lower, 2.62
- RVFKARIYTNRYETNEEDWTLQEI — lower, 2.54
- RVFKARIYTNRYETNEEDYTLQEI — lower, 2.57
- RVFKARIYTNRYETNEEDKALQEI — lower, 2.87
- RVFKARIYTNRYETNEEDKCLQEI — lower, 2.55
- RVFKARIYTNRYETNEEDKDLQEI — the same, 3.48
- RVFKARIYTNRYETNEEDKELQEI — lower, 2.53
- RVFKARIYTNRYETNEEDKFLQEI — lower, 2.74
- RVFKARIYTNRYETNEEDKGLQEI — lower, 1.79
- RVFKARIYTNRYETNEEDKILQEI — lower, 1.76
- RVFKARIYTNRYETNEEDKKLQEI — lower, 2.53
- RVFKARIYTNRYETNEEDKLLQEI — lower, 2.38
- RVFKARIYTNRYETNEEDKMLQEI — lower, 3.06
- RVFKARIYTNRYETNEEDKNLQEI — lower, 2.57
- RVFKARIYTNRYETNEEDKPLQEI — lower, 2.73
- RVFKARIYTNRYETNEEDKQLQEI — lower, 2.78
- RVFKARIYTNRYETNEEDKRLQEI — lower, 2.77
- RVFKARIYTNRYETNEEDKSLQEI — lower, 3.2
- RVFKARIYTNRYETNEEDKVLQEI — lower, 3.47
- RVFKARIYTNRYETNEEDKWLQEI — lower, 2.49
- RVFKARIYTNRYETNEEDKYLQEI — lower, 2.17
- RVFKARIYTNRYETNEEDKTAQEI — lower, 2.9
- RVFKARIYTNRYETNEEDKTCQEI — lower, 2.21
- RVFKARIYTNRYETNEEDKTDQEI — higher, 3.88
- RVFKARIYTNRYETNEEDKTEQEI — lower, 3.38
- RVFKARIYTNRYETNEEDKTFQEI — lower, 2.52
- RVFKARIYTNRYETNEEDKTGQEI — lower, 3.2
- RVFKARIYTNRYETNEEDKTHQEI — higher, 3.76
- RVFKARIYTNRYETNEEDKTIQEI — lower, 2.62
- RVFKARIYTNRYETNEEDKTKQEI — lower, 2.5
- RVFKARIYTNRYETNEEDKTMQEI — lower, 3.24
- RVFKARIYTNRYETNEEDKTNQEI — lower, 3.26
- RVFKARIYTNRYETNEEDKTPQEI — lower, 3.27
- RVFKARIYTNRYETNEEDKTQQEI — lower, 3.18
- RVFKARIYTNRYETNEEDKTRQEI — lower, 2.97
- RVFKARIYTNRYETNEEDKTSQEI — lower, 2.93
- RVFKARIYTNRYETNEEDKTTQEI — lower, 2.97
- RVFKARIYTNRYETNEEDKTVQEI — lower, 2.86
- RVFKARIYTNRYETNEEDKTWQEI — lower, 2.5
- RVFKARIYTNRYETNEEDKTYQEI — lower, 1.99
- RVFKARIYTNRYETNEEDKTLAEI — lower, 3.02
- RVFKARIYTNRYETNEEDKTLDEI — lower, 3
- RVFKARIYTNRYETNEEDKTLFEI — lower, 1.76
- RVFKARIYTNRYETNEEDKTLGEI — lower, 3.19
- RVFKARIYTNRYETNEEDKTLHEI — lower, 1.64
- RVFKARIYTNRYETNEEDKTLIEI — lower, 1.4
- RVFKARIYTNRYETNEEDKTLKEI — lower, 2.38
- RVFKARIYTNRYETNEEDKTLLEI — lower, 2.33
- RVFKARIYTNRYETNEEDKTLMEI — lower, 2.5
- RVFKARIYTNRYETNEEDKTLNEI — lower, 2.49
- RVFKARIYTNRYETNEEDKTLREI — lower, 2.91
- RVFKARIYTNRYETNEEDKTLSEI — lower, 1.12
- RVFKARIYTNRYETNEEDKTLTEI — lower, 1.98
- RVFKARIYTNRYETNEEDKTLVEI — lower, 1.75
- RVFKARIYTNRYETNEEDKTLWEI — lower, 1.79
- RVFKARIYTNRYETNEEDKTLYEI — lower, 2.6
- RVFKARIYTNRYETNEEDKTLQCI — lower, 2.13

— the supplement of paper PMC10567573
